Measurements as given in patent US20090324700A1, “METHODS AND COMPOSITIONS FOR THE INHIBITION OF CATHEPSINS” (priority 2003, published 2009).
Where “and” joins values, the source holds several entries; their conditions need not be identical. Equal entries are not always repeated.

What was measured:
[1] = test system: RelA^−/− MEFs; assay: Survival assay, sphingosine, RelA^−/− MEFs; assay type: cell-based, mouse; details: sphingosine 10-50 μM, 2 h; FIG. 7B
Protocol: (§1) Survival Assays. Although RelA^−/− MEFs are markedly more sensitive to TNF-α compared to RelA^+/+ MEFs, low levels of CHX (0.1 μg/ml) were used in the survival assays. This was to suppress any protective activity of constitutively active non-RelA NF-κB molecules that are present in RelA^−/− MEFs (FIG. 4). Thus, RelA^−/− MEFs were treated with CHX and TNF-α (R&D) and the number of live GFP-positive adherent cells was counted by flow cytometry after 16 h, if not indicated otherwise. Live cells were defined as those that excluded propidium iodide (PI-negative) and had the appropriate size, as defined by forward and side scatter characteristics (Coligan et al., 1995). For RelA^+/+ MEFs, TNF-α-cytotoxicity was determined after 16 h with CHX (10 μg/ml), if not indicated otherwise. Cathepsin B activity was inhibited by a 1 h pre-treatment of MEFs with CA-074 Me (30 μM) (Peptide Institute). […] RelA^−/− MEFs were treated with (10-50 μM) sphingosine (Calbiochem) and the number of live GFP-positive adherent cells was counted by flow cytometry after 2 h.

[2] = test system: Spi2A mRNA; details: mouse, in vivo
[3] = biological target: T1, cathepsin B (Mus musculus, UniProt P10605); assay: Cathepsin B activity in crude cytoplasmic extracts, RelA^−/− MEFs; assay type: cell-based; details: TNF-α 0.2 ng/ml, CHX 0.1 μg/ml; FIG. 1C, 7A
T1 construct: endogenous in cells; host or cells: RelA-/- or RelA+/+ MEFs (retrovirally transduced with GFP, RelA, Spi2A or antisense Spi2A)
T1 sequence (P10605 80-333): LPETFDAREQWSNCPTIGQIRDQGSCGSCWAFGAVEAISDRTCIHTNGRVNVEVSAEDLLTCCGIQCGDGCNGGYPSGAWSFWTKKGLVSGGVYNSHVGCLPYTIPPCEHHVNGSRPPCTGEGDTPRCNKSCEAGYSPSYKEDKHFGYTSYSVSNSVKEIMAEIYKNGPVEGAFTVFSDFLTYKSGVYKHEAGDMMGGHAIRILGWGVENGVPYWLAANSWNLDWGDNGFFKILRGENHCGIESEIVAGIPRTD
Protocol: as §1
Death effector assays. Death effector pathways were induced in […] MEFs by treatment TNF-α (0.2 ng/ml) and CHX (0.1 μg/ml). […] Protein concentration was determined by Lowry assay (DC-protein assay kit, Biorad). […]
Colorimetric assays for capases were performed in reaction buffer (50 mM HEPES, pH 7.4, 100 mM NaCl, 10 mM DTT, 1 mM EDTA, 10% glycerol, 0.1% CHAPS) at 37° C. on crude cytoplasmic extracts using p-Nitoaniline (pNA)-labeled substrates (Calbiochem) specific for caspases 3 and 7 (Ac-DEVD-pNA), caspase 8 (Ac-IETD-pNA), caspase 9 (Ac-LEHD-pNA), each at 0.2 mM. Specific activity was determined by subtracting the apparent activity detected after 1 h pre-incubation of extract with the pan-caspase inhibitor Z-VAD.fmk at 50 μM (ICN Biomedicals Inc), then normalizing for the amount of protein. […] Specific activity was determined by subtracting the apparent activity detected after 30 min pre-incubation of extract at 37° C. with the cathespin B inhibitor CA-074 Me at 30 μM (Peptide Institute) then normalizing for the amount of protein.

[4] = test system: NIH3T3 cells; assay: TNF-α death assays, NIH3T3 cells; assay type: cell-based; details: TNF-α + Z-VAD.fmk 50 μM; FIG. 9B, 10B
Protocol: TNF-α death assays. NIH3T3 cells were transduced with MIGR1 retrovirus (Zhang and Ren, 1998) encoding either GFP alone, or Spi2A in the forward (sense) or reverse (antisense) orientation and stable clones generated, as described previously (Liu et al., 2003). Cells were treated with TNF-α (R&D) and after 16 h the number of live GFP-positive adherent cells were counted by flow cytometry (Liu et al., 2003). Live cells were defined as those that excluded propidium iodide (PI-negative) and had the appropriate size, as defined by forward and side light scatter characteristics. Caspase activity was inhibited by pre-treatment of cells or extracts for 1 h with Z-VAD.fmk (ICN Biomedicals Inc; 50 μM). […] In anti-sense experiments the level of Spi2A mRNA was quantitated by real-time PCR using primers and probes specific for Spi2A (Inglis et al., 1991) and cyclofilin A control mRNA (Medhurst et al., 2000), 4 h after treatment with Z-VAD.fmk ([…]) and TNF-α (10 ng/ml), as described previously (Liu et al., 2003).

[5] = test system: RelA^−/− MEFs; assay: Survival assay, TNF-α and CHX, RelA^−/− MEFs; assay type: cell-based, mouse
[6] = test system: anti-LCMV memory CD8 cells; details: mouse, in vivo

B1: Spi2A: murine Spi2A polypeptide, SEQ ID NO:2; purified as C-terminal 3×FLAG protein or expressed from MIGR1 retrovirus in cells and bone-marrow chimeras (protein, listed as Mus musculus)
chain: MAGVSPAVFGCPDVTLGRNTAVREVQENVTSVDSLTLVSSNTDFAFSLYRKLVLKNPDENVVFSPFSICTALALLSLGAKSNTLKEILEGLKFNLTETPEPDIHQGFRYLLDLLSQPGNQVQISTGSALFIEKHLQILAEFKEKARALYQAEAFTADFQQPLKATKLINDYVSNHTQGKIKELISGLKESTLMVLVNYIYFKGKWKNPFDPNDTFKSEFYLDEKRSVIVSMMKTGYLTTPYFRDEELSCTVVELKYTGNASAMFILPDQGRMQQVEASLQPETLRKWKNSLKPRMIHELRLPKFSISTDYSLEHILPELGIREVFSTHADLSAITGTKDLRVSQVVHKAVLDVAEKGTEAAAATGMAGVGCCAVFDFLEIFFNRPFLMIISDTKAHIALFMAKVTNPERSTNFPNGEGASSQRLESKRLCFGDPLCLIGQ
modifications: C-terminal 3xFLAG tag
notes: purified as C-terminal 3×FLAG protein or expressed from MIGR1 retrovirus in cells and bone-marrow chimeras
In the case of B1, the “Protection from death after treatment with sphingosine” value [1] is reported as “could protect”, the “Spi2A mRNA in GFP^+ CD8^+ spleen cells” value [2] is reported as “significant increase” and the “Cytosolic cathepsin B activity after TNF-α, retrovirally transduced cells” value [3] is reported as “inhibited the induction”. For the same molecule, the “Survival against TNF-α in the absence of caspase activity, transduced clones vs GFP” value [4] was “markedly improved survival”, the “Protection at low concentrations of TNF-α” value ([5]; 0.5 ng/ml TNF-α, FIG. 2B) was “virtually complete” and the “Percentage survival after TNF-α and CHX, retrovirally transduced cells vs GFP” value ([5]; 16 h, CHX 0.1 μg/ml, FIG. 1B, 2B) was “markedly improved survival”. The “Protection at high concentrations of TNF-α” value ([5]; after 16 hours, FIG. 2B) was “dramatic”, the “Number of anti-LCMV CD8 cells per spleen GFP^−” value [6] was 5.07 ± 0.68 (n = 3) ×10^−5 and 2.79 ± 0.12 (n = 6) ×10^−5 and the “Percentage and absolute number of anti-LCMV memory CD8 cells (IFN-γ^+ CD8^+) in the spleen” value [6] was “increased”.
